Laboratory results from patent publication US20050281829A1, “Fc chimeric proteins with anti-HIV drugs” (priority 2003, published 2005).
Where two headings read alike, the source gives them in different places.

Key:
[1] = molecular target: human serum albumin (Homo sapiens, UniProt P02768); settings: SPR, FIG. 11
[2] = monkeys, single intravenous bolus; FIG. 8A/8B
Protocol: The animals were sedated with ketamine (≈10 mg/kg) prior to dosing. The hair from the dosing area were clipped, cleansed with alcohol, and air-dried prior to delivering the dose. This was followed by a 3 mL saline flush. Samples were obtained from the femoral vein at indicated times. The blood was allowed to clot and the serum was separated and frozen until analysis.

[3] = neonatal rats, oral (gavage); FIG. 9
Text: The blood was allowed to clot and the serum was separated and frozen until analysis.

**Q.** For enfuvirtide, which “binding to human serum albumin relative to binding of either FcT20 or T20Fc” value ([1]; 25° C., Req divided by molecular weight) is on record?
**A.** more than 3 fold

**Q.** For “Fc-T20: Recombinant chimeric protein: human Fc linked via a glycine peptide linker to T20 at the Fc C terminus (SEQ ID NO:4)”, which serum half life [2] is on record?
**A.** greater than 40 hours

**Q.** And the serum half life [3]?
**A.** 23 h

**Q.** What about the “binding to human serum albumin (in words)” value [1] of the same substance?
**A.** reduced binding
